Data set [1] concerns the target T1, L7Ae (Archaeoglobus fulgidus, UniProt O29494 SEQ:21-139). The data set can be described thus: EMSA; 150 mM KCl, 1.5 mM MgCl2, tRNA competitor, 0-500 nM protein, on ice. As to conditions: tags: His tag (pET-28b+, NdeI/XhoI); label: 32P. How it is done: (§1) The reaction of L7Ae with Box C/D, Box C/D mini, or Box C/D minimut was performed at a final concentration of 10 nM, 25 nM, or 25 nM RNA, respectively. The reaction was performed as follows under conditions involving 10 nM or 25 nM RNA, 20 mM Hepes-KOH, 150 mM KCl, 1.5 mM MgCl₂, 2 mM DTT, 0.001 U/mL tRNA, 3% glycerol, and 0 to 500 nM protein. First, 1 μL of ³²P-labeled RNA was denatured at 80° C. for 5 minutes and then supplemented with 4 μL of 5×binding buffer (100 mM Hepes-KOH (pH 7.5), 750 mM KCl, 7.5 mM MgCl₂, 10 mM DTT, 0.005 U/ρL tRNA, 15% glycerol) and ultrapure water. Then, the solution was mixed with the protein to adjust the whole amount to 20 μL. The reaction solution was left on ice for 60 minutes. 2 μL of dye (0.25% BPB, 0.25% XC, 30% glycerol) was added thereto, and the mixture was electrophoresed on a 8% nondenaturing polyacrylamide gel at 4° C. for 3 to 4 hours. Then, the gel was dried for 1 hour using a gel drier and analyzed for its radiation dose intensity using Bio-Imaging Analyzer (BAS2500; FUJIFILM) (FIGS. 4 and 5).
(§2) As a result, both Box C/D and Box C/D mini were confirmed to increase the band in an L7Ae protein concentration-dependent manner.
Background: Mobility shift assays separate free from complexed probe on a gel.

The target of data set [2] is T1, L7Ae. The data set can be described thus: EMSA; no band increase at 0-500 nM protein. As to conditions: tags: His tag (pET-28b+, NdeI/XhoI); label: 32P. How it is done:
as §1, §2

The target in data set [3] is T2, ThrRS (threonyl-tRNA synthetase) (Escherichia coli, UniProt P0A8M3 SEQ:13-654). The data set can be described thus: EMSA; 50 mM KCl, 5 mM MgCl2, 0-40 uM protein; supershift suggests dimer; weaker than Domain 234. As to conditions: tags: His tag (pQE-30); label: 32P. How it is done:
(§3) The reaction of ThrRS with Domain 234 or Domain 2 was performed as follows under conditions involving final concentrations of 20 nM RNA, 25 mM Hepes-KOH, 50 mM KCl, 5 mM MgCl₂, 1 mM DTT, 5% glycerol, and 0 to 40 μM protein. First, […] ³²P-labeled RNA was denatured at 80° C. for 5 minutes and then supplemented with 4 μL of 5×binding buffer ([…], 250 mM KCl, 25 mM MgCl₂, 5 mM DTT, 25% glycerol) and ultrapure water. Then, the solution was mixed with the protein to adjust the whole amount to 20 μL. The reaction solution was left on ice for 60 minutes. 2 μL of dye (0.25% BPB, 0.25% XC, 30% glycerol) was added thereto, and the mixture was electrophoresed on a 12% nondenaturing polyacrylamide gel at 4° C. for 3 to 4 hours. Then, the gel was dried for 1 hour using a gel drier and analyzed for its radiation dose intensity using Bio-Imaging Analyzer (BAS2500; FUJIFILM) (FIGS. 6 and 7).
(§4) As a result, both ThrRS Domain 234 and ThrRS Domain 2 were confirmed to increase the band in a ThrRS protein concentration-dependent manner. […] As is also evident from the degree of band smear, Domain 234 has stronger binding than only Domain 2.

Data set [4] deals with T1, L7Ae. Kind of data set: EMSA; 150 mM KCl, 1.5 mM MgCl2, tRNA competitor, 0-500 nM protein, on ice. The settings on record: tags: His tag (pET-28b+, NdeI/XhoI); label: 32P. How it is done: as §1
This is another data set of the same source.

For data set [5], the target named is T2, ThrRS (threonyl-tRNA synthetase). Kind of data set: EMSA; 50 mM KCl, 5 mM MgCl2, 0-40 uM protein; stronger than Domain 2. As to conditions: tags: His tag (pQE-30); label: 32P. How it is done:
as §3, §4

The text below walks through data of patent publication US20110040077, “Protein-Responsive Translational Regulatory System Using RNA-Protein Interacting Motif” (JAPAN SCIENCE AND TECHNOLOGY AGENCY, published 2011).

T1 sequence (O29494 whole entry): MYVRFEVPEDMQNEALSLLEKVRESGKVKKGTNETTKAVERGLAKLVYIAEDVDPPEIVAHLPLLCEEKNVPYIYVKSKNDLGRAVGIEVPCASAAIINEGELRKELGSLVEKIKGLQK
T2 sequence (P0A8M3 whole entry, the tested form may be a part): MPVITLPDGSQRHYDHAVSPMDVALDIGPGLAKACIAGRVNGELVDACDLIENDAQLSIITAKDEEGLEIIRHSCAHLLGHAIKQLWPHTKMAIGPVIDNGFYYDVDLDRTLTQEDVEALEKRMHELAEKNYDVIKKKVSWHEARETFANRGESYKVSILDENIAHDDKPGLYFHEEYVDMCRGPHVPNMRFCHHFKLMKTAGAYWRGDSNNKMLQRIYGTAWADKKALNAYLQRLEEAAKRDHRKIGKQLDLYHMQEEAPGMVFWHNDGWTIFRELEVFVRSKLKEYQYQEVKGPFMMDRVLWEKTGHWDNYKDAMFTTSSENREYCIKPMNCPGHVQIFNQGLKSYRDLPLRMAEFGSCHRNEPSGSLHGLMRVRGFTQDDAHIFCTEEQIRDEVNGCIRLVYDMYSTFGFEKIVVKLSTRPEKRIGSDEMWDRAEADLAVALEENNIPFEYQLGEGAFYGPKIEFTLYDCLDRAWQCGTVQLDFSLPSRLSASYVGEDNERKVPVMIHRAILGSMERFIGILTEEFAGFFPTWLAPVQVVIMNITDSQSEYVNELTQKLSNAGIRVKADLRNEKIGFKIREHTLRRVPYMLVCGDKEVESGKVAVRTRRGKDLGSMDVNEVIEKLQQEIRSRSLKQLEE

B1: Box C/D mini (ssRNA)
RNA: GGGCGUGAUGCGAAAGCUGACCC
For the molecule B1, the binding result with L7Ae [1] is listed as “binds”.

B2: Box C/D minimut (ssRNA)
RNA: GGGCGUCAUGCGAAAGCUGCCCC
B2: the binding result in the data set with L7Ae [2] is on record as “no binding”.

B3: ThrRS Domain 2 (ssRNA)
RNA: GGCGUAUGUGAUCUUUCGUGUGGGUCACCACUGCGCC
For the molecule B3, the binding result in data set [3] is “binds”.

B4: Box C/D (ssRNA)
RNA: GGCCAGAGUGGGCGUGAUGCAUGUCUAGGAAACUAGACAUGCUGACCCACUCUGGCC
In the case of B4, in the data set with L7Ae [4], the binding result is on record as “binds”.

B5: ThrRS Domain 234 (ssRNA)
RNA: GGAUUGCGAACCAAUUUAGCAUUUGUUGGCUGCAAAUGGUUUCGCAAUGAACUGUUAAUAAACAAAUUUUUCUUUGUAUGUGAUCUUUCGUGUGGGUCACCACUGCAAA
For B5, the binding result in data set [5] was “binds”.
